The results in this text go back to paper PMC9187738.

The assay concerns the target hamster JUNO (hamster). Kind of assay: live imaging-based adhesion molecule (LIAM) assay; BHK cells, non-inducible expression (cytomegalovirus promoter); separately transfected cells mixed in equal amounts 4 h after transfection, incubated 20 h, imaged every 6 min for 12 h at 40x, 37 °C, 5% CO2; read-outs: accumulation at the cell interface and translocation to the opposite cell, % of contacting cell pairs.

B1: mouse IZUMO1-Venus (natural protein)
chain: CIKCDQFVTDALKTFENTYLNDHLPHDIHKNVMRMVNHEVSSFGVVTSAEDSYLGAVDENTLEQATWSFLKDLKRITDSDLKGELFIKELLWMLRHQKDIFNNLARQFQKEVLCPNKCGVMSQTLIWCLKCEKQLHICRKSLDCGERHIEVHRSEDLVLDCLLSWHRASKGLTDYSFYRVWENSSETLIAKGKEPYLTKSMVGPEDAGNYRCVLDTINQGHATVIRYDVTVLPPKHSEENQPPNIITQEEHETPVHVTPQTPPGQEPESELYPELHPELYPELIPTVAQNPEKKMKTRLLILLTLGFVVLVASIIISVLHFRKVSAKLKNASDEVKPTASGSKSDQSLSQQMGLKKASQADFNSDYSGDKSEATEN
Regarding B1, the IZUMO1 accumulation (% of contacting cell pairs) was determined as 78%.
